According to the supplement of paper PMC9170038:

System: MS2 coat protein
Experiment: apparent KD of MS2 coat protein; designed switch direction (-1 OFF switch, 1 ON switch): -1; higher = weaker reporter binding
In short: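 RNA switches sharing common flanks were transcribed by stalled E. coli RNA polymerase on Illumina chips. A doubling series of SNAP-549-labelled MS2 coat protein, from 0.7 or 1.5 nM to 3 µM, was applied in Tris-HCl pH 7.5 buffer with KCl, MgCl2, BSA, DTT, tRNA and Tween-20. Each step lasted 0.8–1.5 h at the bottom of the series and 10–20 min at the top. Normalised cluster fluorescence was curve-fitted, giving apparent KD as the per-design median over clusters.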

[1] = Eterna round: R95, input ligand: FMN 200 uM
[2] = Eterna round: R95, input ligand: microRNA oligo, concentration not stated
[3] = Eterna round: R95, input ligand: none
[4] = input ligand: microRNA oligo, concentration not stated

Sequence	apparent KD of MS2 coat protein [1]	apparent KD of MS2 coat protein [2]	apparent KD of MS2 coat protein [3]	apparent KD of MS2 coat protein (input ligand: FMN 200 uM)	apparent KD of MS2 coat protein [4]	apparent KD of MS2 coat protein (input ligand: none)
ACCUCACAUGAGGAUCACCCAUGUCAGGAUAUGUACCUGGCCAAGACAAAAGCCAGAAGCAGAAGGGACUGCGG [Enrionerdi] (puzzle: Exclusion 1)	72.5 nM	129 nM	93.6 nM			
GAUUAUGCGAGCUUUAGGGACAUGAGGAUCACCCAUGUUCGUCUUAUUGGUCUAGGUGCACUAACAUACCUAAAUCU [JMF 36] (puzzle: Sensor v3, turn-off variant 1)	22.3 nM	33.7 nM	23.6 nM			
UUAAUUAAUUGCGCAAGAUCACAUGAGGAUCACCCAUGUAUAUAGGAUAUCAGCUCGAUUAGAGCUGAGAAGGAUAUACAGCGC [ExNG3/3-A1] (Eterna round: R96, puzzle: Exclusion NG 3)				711 nM	192 nM	313 nM
UUAUAACAUGUAGGAUAUGCGUGGCGAAGCUAUGCAGAAGGACAUGAGGAUCACCCAUGUUCCUGCGUCCGCGUACGGAUGCAA [JL Eng1 1.21 mod 1] (Eterna round: R96, puzzle: Exclusion NG 1)				34.1 nM	14.1 nM	14.3 nM
UAUUAGCAAGUAAGAUCCCACAUGAGGAUCACCCAUGUGCUCGUCAUAUCAGGUACGGAGCGGAAACUCACGGUACG [Sensor-V1 #87] (Eterna round: R97, puzzle: Sensor, turn-off variant 1)				209 nM		351 nM
AGUUGGGCAGGAUAUACAUGAGGAUCACCCAUGUGAGAAAUACUAGUGAGGUCGAUUAGUAGAAGGGCCUGACA [Mat - Exclusion 3 - Eli Mod - D30] (Eterna round: R97, puzzle: Exclusion 3)				244 nM		31.2 nM
AAGGCGUCAGGAUAUCCAAUAUAUGACAUGAGGAUCACCCAUGUUUCCACUCGUACCUCCGGAGAAGGGACAAAUA [Ex5 #87] (Eterna round: R97, puzzle: Exclusion 5)				35.6 nM		38 nM
AAGAAACGGCAGGAUAUCCAGUCGAGAGAAAUAGGAGAAGGGCCAACAUGAGGAUCACCCAUGUCGGUGGCCUC [Rariinon] (Eterna round: R97, puzzle: Exclusion 6)				145 nM		78.5 nM
CUGAGCAGACGGAGAUCCAACAUGAGGAUCACCCAUGUCUCAAAAGCUUUUUGCUUGUCUUAUUCUCCUCUGUUCAC [Enradibe] (puzzle: Sensor v3, turn-off variant 1)	13.2 nM	31.6 nM	11.2 nM			
GUCCUCAUGACAUGAGGAUCACCCAUGUAUUAUUUGUUAACUGAGGAUAUACUCUUAAUUUUUAUGUAGAAGGCAGAUUCGGUC [JR_ExcNG3_Sub020] (Eterna round: R96, puzzle: Exclusion NG 3)					24.8 nM	
AAUGAUGAUGUGAGGAUAUACAUAGUUAGAAAGUAGUAGAAGGCACAUGAGGAUCACCCAUGUAGAUGUAAGGU [JR_BME4_Sub001] (puzzle: Brourd's mod of Exclusion 4)	52.5 nM	26.3 nM	24.6 nM			
UGGUAACAUGAGGAUCACCCAUGUCAGGAUAUCAGUAAGAAUAGAUGAGAGUAGAAGAUGAGAAGGGACUAUAU [Excluse me! 7 - Jieux - Exclusion 1] (puzzle: Exclusion 1)		29.1 nM				
UUAGUAUAGCAAGGAUAUGUUUAUGUAUAGUUGCCUCUUACAUGAGGAUCACCCAUGUUUAACUUACAGAAGGUGCAAUGAUUU [JR_ExcNG2_Sub033] (Eterna round: R96, puzzle: Exclusion NG 2)				279 nM	108 nM	137 nM
UACAUGAGGAUCACCCAUGUCUUUUCGUGUAUGGUACCCAUCUAGGAUAUCGUGUUAUUUAACCACGAGAAGGAGAGUAUCAAU [MOD5 Solution 21 by JMF] (Eterna round: R96, puzzle: Exclusion NG 3)				65.6 nM	55.9 nM	66.5 nM
GAGCCAUCGUGAGAUGGCUAAAUUACAUGAGGAUCACCCAUGUAGGAUAUCGAUUGCUUUGCAGUCGAGAAGGACAUGUUUAAU [JL ENG3 3.99] (Eterna round: R96, puzzle: Exclusion NG 3)				67.5 nM	27.8 nM	32.9 nM
UUUUCGUCAGGAUAUUCUACUUAUUACAUGAGGAUCACCCAUGUGUAUGUACAAGGGUGUGAAGAAGGGACUUUUU [LRO-Excl5-10-mod A17d by Omei] (Eterna round: R97, puzzle: Exclusion 5)				305 nM		1070 nM
CAGAAACAUGAGGAUCACCCAUGUGAGGAUAUGCGUACGUUGUCCGUAGGCGACGUGCGCAGAAGGCACAAAGG [Mat - Mod of JL D84] (puzzle: Exclusion 1)		111 nM				

Sequence	apparent KD of MS2 coat protein [1]	apparent KD of MS2 coat protein [2]	apparent KD of MS2 coat protein [3]	apparent KD of MS2 coat protein (input ligand: FMN 200 uM)	apparent KD of MS2 coat protein [4]	apparent KD of MS2 coat protein (input ligand: none)
AAGCUGUCAGGAUAUCGUUAAUUUAGUUGUUUGUAUUAGUUCGAGAAGGGACAUGAGGAUCACCCAUGUAUGAA [Ex4 #41] (Eterna round: R97, puzzle: Exclusion 4)				62.7 nM		31 nM
UCGGCGCGAGGAUAUACGUUUGCUUUUUUUUGUCUUUGUGUACAUGAGGAUCACCCAUGUAGAAGGCGCGCCGC [Apr-15 SS2-22] (puzzle: Exclusion 2)		18.5 nM				
UGUACUAACACGGAAGUGUUAGUACUAUAAGCUUGUGUUACAUGAGGAUCACCCAUGUCCUCAUAAGCUCGUCUUAU [Mat - Sensor v3 - Turn-off var 2 - D74] (puzzle: Sensor v3, turn-off variant 2)	157 nM	53.6 nM	172 nM			
AAGGGUGCCCUUAGAAAGACAUGAGGAUCACCCAUGUAGACUGAGGAUAUCCACUCCUAAGGACCGGAGAAGGCAGUGUAAUGC [Qubion] (Eterna round: R96, puzzle: Exclusion NG 3)				16.9 nM	13.8 nM	18.2 nM
CGAGCUCAUGUGAGGAUAUACCUAUGGAUACAUAGGUAGAAGGCACAUGAGGAUCACCCAUGUCCUAGAGCUCG [jl-bmx4-4.58] (Eterna round: R97, puzzle: Brourd's mod of Exclusion 4)				821 nM		138 nM
ACACGGCGAGGAUAUACAUGAGGAUCACCCAUGUGUCGGCCGGUACGGUAGCACUAGUGUAGAAGGCGCAUUGG [EX3 #38] (Eterna round: R97, puzzle: Exclusion 3)				28.1 nM		31.1 nM
GAUUUACAUGAGGAUCACCCAUGUGAGGAUAUAUUGUUAUUUUUAAUAUUUUUUAGUGGUAGAAGGCGCGUGAU [JR_Exc1_Sub016] (Eterna round: R97, puzzle: Exclusion 1)				24.2 nM		26.9 nM
GGUUGGCGAGGAUAUACAUGAGGAUCACCCAUGUGGUCCUGUGGCUGAUCAAGCCUAUGUAGAAGGCGCAAAUC [salish99_ex3_r4_012] (Eterna round: R97, puzzle: Exclusion 3)				137 nM		257 nM
CAUGCACAUGAGGAUCACCCAUGUGAGGAUAUUUAGCGUCAGUAAUCAAUAGACAGCAGAAGAAGGCACCUGGU [Eternabot (L2) Solution 73] (Eterna round: R97, puzzle: Exclusion 1)				35 nM		29.4 nM
UUUUUGUAUGAAGGAUAUACUUAACAUGAGGAUCACCCAUGUGGUGUUGUGAGUGAGUGAGUUUAGUAGAAGGUCAAUUCUUUU [JMF's solution 88] (Eterna round: R96, puzzle: Exclusion NG 2)				604 nM	275 nM	454 nM
CUACUGAAGCUUUGCUUUAGUCGUACAUGAGGAUCACCCAUGUAGGAUAUGGUAGGCUUUGCUUACUAGAAGGAUAGAGUGAUC [salish99_ExNG3_r04_601] (Eterna round: R96, puzzle: Exclusion NG 3)				80.9 nM	38.3 nM	58.1 nM
AAUAAAGGAGGAUAUACAUGAGGAUCACCCAUGUGAAUAAAAUAAAUAAAAUGAUAAAGUAGAAGGCCUAAUAA [JMF's solution 3] (puzzle: Exclusion 3)	33.5 nM	33.3 nM	49.7 nM			
AACAGUCUAGAGGAUAUGUGCGAUUAAUAUCGUGCAGAAGGCUGGACAUGAGGAUCACCCAUGUAAAUACUACC [Omei Ex6 A16] (Eterna round: R97, puzzle: Exclusion 6)				79.4 nM		34 nM
UCGCUCCGUGUAGGAUAUCGUUGUAUGAUGCGGCGAGAAGGACAUGAGGAUCACCCAUGUAUGUUAUUAUCACGCGUGGCGCAA [Design 65] (Eterna round: R96, puzzle: Exclusion NG 1)				18.5 nM	15.3 nM	20.6 nM
UUAUAUAAUGUGAGGAUAUGCUGGUCCUUGGAUCAGCAGAAGGCACAUGAGGAUCACCCAUGUAGUAAAUUUUA [JL bmx4 3.02] (puzzle: Brourd's mod of Exclusion 4)		17.9 nM				
UUUAAUUUUUUUUUUUUACAAGCUUUUUGCUCGUCUUAUACAUGAGGAUCACCCAUGUGAGUGAGGGAUAAAUUAUC [JMF 41] (puzzle: Sensor v3, turn-off variant 2)	19.4 nM	23.9 nM	16.7 nM			
GCCGCCGCCUUGGCGGCGGACAUGAGGAUCACCCAUGUCAAGCUUUUGCUCGUCUUAUUUGGCCGGCUUGCCGGCCA [Olib_1] (Eterna round: R97, puzzle: Sensor, turn-off variant 1)				24.5 nM		26.1 nM
